Laboratory results from patent US20220378887A1 (GENOIMMUNE THERAPEUTICS, published 2022).

B1: RTIEQLTLK polypeptide (ARHGEF11; SEQ ID NO: 8) (peptide)
peptide: RTIEQLTLK
notes: Synthesized mutant neoantigen peptide; also called high-frequency mutant polypeptide
B2: VVVGAGDVGK polypeptide (KRAS; SEQ ID NO: 15) (peptide)
peptide: VVVGAGDVGK
notes: Synthesized mutant KRAS neoantigen peptide; also called high-frequency mutant polypeptide
B3: STIDESPIFK polypeptide (GLCE; SEQ ID NO: 7) (peptide)
peptide: STIDESPIFK
notes: as for B1
B4: TTAPFLSGK polypeptide (CTNNB1; SEQ ID NO: 9) (peptide)
peptide: TTAPFLSGK
notes: as for B1

Biological target: T1, HLA-A*11:01 (MHC-I molecules on the surfaces of T2 cells) (human)
T1 construct: It only names the antibody against 'the corresponding HLA typing (HLA-A*11:01)'; also called HLA molecules
Test: T2 cell MHC-I stabilisation assay, flow cytometry with FITC anti-HLA-A*11:01 antibody
Protocol: The synthesized polypeptides were added to 2*10⁵ T2 cells, and human β2 micro-globulin (final concentration of 3 μg/ml) was added and cultivated in 24-well plate. The plate was cultured in an incubator (37° C., 5% CO₂) overnight.
200 g of cultured cells was centrifuged for 5 minutes to collect the cells. After washing twice with PBS, the cells were directly incubated with FITC-labeled monoclonal antibody against the corresponding HLA typing (HLA-A*11:01), and maintained at 4° C. for 30 minutes.

Binder	FI (fluorescence index)
B1	1.57
B2	1.66
B3	4.09
B4	1.02
